Source: patent US20170267776A1 (published 2017)

T1: LGR5-Fc fusion protein (mature form containing amino acids 22-564 of human LGR5 fused to human Fc) (human, UniProt O75473 22-564)
T1 construct: range 22-564; Expressed in insect cells (baculovirus) and purified by protein A; also called soluble LGR5-Fc; not shown: human Fc
T1 sequence (looked up): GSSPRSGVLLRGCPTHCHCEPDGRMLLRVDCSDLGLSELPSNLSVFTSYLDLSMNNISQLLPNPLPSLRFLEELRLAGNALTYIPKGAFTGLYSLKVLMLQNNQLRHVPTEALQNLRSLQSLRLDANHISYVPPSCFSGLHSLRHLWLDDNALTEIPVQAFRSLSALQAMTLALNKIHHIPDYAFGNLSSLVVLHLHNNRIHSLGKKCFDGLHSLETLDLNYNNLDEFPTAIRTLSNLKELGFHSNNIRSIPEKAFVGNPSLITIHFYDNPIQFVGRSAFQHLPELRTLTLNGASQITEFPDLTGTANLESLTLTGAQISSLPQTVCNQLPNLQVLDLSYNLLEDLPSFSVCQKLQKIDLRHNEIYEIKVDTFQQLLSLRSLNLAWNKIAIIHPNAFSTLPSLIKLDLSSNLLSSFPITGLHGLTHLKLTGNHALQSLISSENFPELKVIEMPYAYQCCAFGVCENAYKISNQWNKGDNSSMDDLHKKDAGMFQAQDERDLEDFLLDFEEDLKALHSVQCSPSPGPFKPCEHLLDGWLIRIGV

T2: recombinant human RSPO3 protein, biotinylated (captured on streptavidin-coated chips) (human, UniProt Q9BXY4 22-272, limits assumed, biotinylated (sites not given))
T2 sequence: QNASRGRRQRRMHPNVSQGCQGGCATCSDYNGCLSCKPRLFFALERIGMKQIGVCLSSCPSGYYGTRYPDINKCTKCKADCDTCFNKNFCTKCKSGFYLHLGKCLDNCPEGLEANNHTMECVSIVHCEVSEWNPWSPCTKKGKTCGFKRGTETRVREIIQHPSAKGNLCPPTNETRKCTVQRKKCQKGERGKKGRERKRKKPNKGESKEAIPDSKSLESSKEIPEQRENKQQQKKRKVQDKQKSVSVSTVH


Key:
[1] = molecular target: T1, LGR5-Fc fusion protein (mature form …); experiment: SPR (Biacore 2000): RSPO-Fc immobilised on CM5 chip, soluble LGR5-Fc injected 100 nM to 0.78 nM
Experimental: Binding affinities between RSPO proteins and LGR5 were analyzed by surface plasmon resonance. A soluble LGR5-Fc construct was generated using standard recombinant DNA techniques. Specifically, amino acids 1-564 of human LGR5 were ligated in frame to human Fc and the recombinant LGR5-Fc fusion protein was expressed in insect cells using baculovirus. The LGR5-Fc fusion protein was purified from the insect medium using protein A chromatography. Cleavage of the LGR5 signal sequence results in a mature LGR5-Fc fusion protein containing amino acids 22-564 of LGR5. […] Two-fold dilutions of soluble LGR5-Fc were injected over the chip surface (100 nM to 0.78 nM). Kinetic data were collected over time using a Biacore 2000 system from Biacore Life Sciences (GE Healthcare) and the data were fit using the simultaneous global fit equation to yield affinity constants (KD values) for each RSPO protein (Table 3).

[2] = molecular target: T2, recombinant human RSPO3 protein, …; experiment: summary of Example 3 (SPR, Biacore 2000)
Experimental: The antibodies were serially diluted 2-fold from 100 nM to 0.78 nM in HBS-P (0.01M HEPES pH 7.4, 0.15M NaCl, 0.005% v/v Surfactant P20) and were injected over the chip surface. Kinetic data were collected over time and were fit using the simultaneous global fit equation to yield affinity constants (KD values) for each antibody.

| Kd [1] | Kd [2] | Binder |
| --- | --- | --- |
| 73 nM | – | RSPO4-Fc fusion protein (full-length human RSPO4 ligated in-frame to a human Fc region) (Fc fusion, UniProt Q2I0M5 20-234, looked up, not shown: human Fc region) LNRRKKQVGTGLGGNCTGCIICSEENGCSTCQQRLFLFIRREGIRQYGKCLHDCPPGYFGIRGQEVNRCKKCGATCESCFSQDFCIRCKRQFYLYKGKCLPTCPPGTLAHQNTRECQGECELGPWGGWSPCTHNGKTCGSAWGLESRVREAGRAGHEEAATCQVLSESRKCPIQRPCPGERSPGQKKGRKDRRPRKDRKLDRRLDVRPRQPGLQP |
| – | < 10 nM | anti-RSPO3 antibody 131R002 (IgG2) (antibody, V domains shown) VH: QVQLQESGPELVKPGASVKISCKASGYTFTDYSIHWVKQNHGKSLDWIGYIYPSNGDSGYNQKFKNRATLTVDTSSSTAYLEVRRLTFEDSAVYYCATYFANYFDYWGQGTTLTVSS VL: DIVLTQSPASLAVSLGQRATISCKASQSVDYDGDSYMNWYQQKPGQPPKLLIYAASNLESGIPARFSGSGSGTDFTLNIHPVEEEDAATYYCQQSNEDPLTFGAGTKLELKR |
| – | < 10 nM | anti-RSPO3 antibody 131R003 (IgG2) (antibody, V domains shown, also called parental 131R003) VH: QVQLKQSGPELVKPGASVKISCKASGYTFTDYSIHWVKQNHGKSLDWIGYIYPSNGDSGYNQKFKNRATLTVDTSYSTAYLEVRRLTFEDSAVYYCATYFANYFDYWGQGTTLTVSS VL: DIVLTQSPASLAVSLGQRATISCKASQSVDYDGDSYMNWYQQKPGQPPKLLIYAASNLESGIPARFSGSGSGTDFTLNIHPVEEEDAATYYCQQSNEDPLTFGAGTKLELKR |
